B1: Lip-VIN3VEL (residues 500–603), wild type [Arabidopsis thaliana] / itself (parent)
chain: GKQGGNKRFKSRTVSLNEKPEINNAANGVGDKDLGHIVKTIRCLEEEGHIDKSFRERFLTWYSLRATHREVRVVKIFVETFMEDLSSLGQQLVDTFSESILSKR
B2: Lip-VEL1VEL (residues 589–692), wild type [Arabidopsis thaliana] / itself (parent)
chain: SDEIKNRQARIEISMKDNCNNGDHSANGGTESGLEHCVKIIRQLECSGHIDKNFRQKFLTWYSLRATSQEIRVVKIFIDTFIDDPMALAEQLIDTFDDRVSIKR

Legend:
Test in all cases: SEC-MALS
[1] = variants of: B1; settings: with itself; predicted molecular mass 20.3 kDa; concentration not given
[2] = variants of: B1; settings: with itself; predicted molecular mass 20.3 kDa; concentration not given; remark: listed apart in the source
[3] = variants of: B2; settings: with itself; 255 µM sample; predicted molecular mass 23.4 kDa
[4] = variants of: B2; settings: with itself; 255 µM sample; predicted molecular mass 23.4 kDa; remark: listed apart in the source

Variant | screen value [1] [molecules] | screen value [2] [kDa] | screen value [3] [molecules] | screen value [4] [kDa]
chain 1 L64D | 1.6 | 33.5 |  | 
chain 1 R57D | 1.2 | 24.6 |  | 
chain 1 R42H | 1.2 | 23.8 |  | 
chain 1 R55A K57D |  |  | 1.1 | 25

Source: PMC7614096, “Head-to-tail polymerization by VEL proteins underpins cold-induced Polycomb silencing in flowering control” (Cell Reports, 2022)
